According to the nanobody polyreactivity screen of Harvey et al. (2022):

Test: yeast display, Sf9 membrane polyspecificity reagent, FACS + sequencing; frameworks hold sequencing errors
Method in brief: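 Nanobodies came from a synthetic yeast display library in Saccharomyces cerevisiae BJ5465, induced with galactose for 36–48 hours and stained for 1 hour at 4 °C with 10% biotinylated, detergent-solubilized Sf9 membrane reagent. Cells were enriched on streptavidin microbeads and then FACS-sorted, with low and high (top ~1%) gates set on anti-HA fluorescence for expression and streptavidin fluorescence for reagent binding. Each polyreactivity label reflects the gate a clone came from. Genes were amplified by colony PCR, sequenced by MiSeq 2 × 250 and filtered by CDR length.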

QVKLVESGGGLVQAGGSLRLTCAASGSTFGPYAMGWYRQEPGKERELVSTITRNGGSTYYADSVKGRFTISRDNAKNTVYLQMNSLKPEDTAVYYCNAEGRWSSFTQRMDYWGQGTQVTVSS
polyreactivity (PSR sort gate): low polyreactivity

QVKLVESGGGLVQAGGSLSLSFAYSGITFYGNAMGWYRQAAGTERELVAAITGGGGTNYADSLKGRFTISRDNEKNTVYLQMNSLKPEDTAVYYCNRDYFVWFQRGQYKRGSSWYDYWGQGTQVTVSS
polyreactivity (PSR sort gate): low polyreactivity

QVKLVESGGGLVQAGRSLRLICAASGFTFHYNSMGWYRQAPGKEREFVAAISGSGDRTYYADSGKGRFTISRDNAKNTVYLQMNSLKPEDTAVYYCATSVRQNYFYSYDYWGQGTQVTVSS
polyreactivity (PSR sort gate): high polyreactivity

QVKLVESGGGLVQAGRSLRLSCAASGFTFSANTMGWYRQAPGKERELVAAITRGGRTYYADSVKGRFTISRDNAKNTVYLQMNSLKPEDTAVYYCAKRATWYTVTREGYWGQGTQVTVTS
polyreactivity (PSR sort gate): high polyreactivity

QVKLVESGGGLVQAGVSLRLSCAASGRIFVFYAMGWYRQAPGKERELVAAITASSTRTYYADSVKGRFTISRAHAKNTVYLQMNSLKPEDTAVYYCARDIRQYILYGRGDYWGQGTQVTVSS
polyreactivity (PSR sort gate): low polyreactivity

QVKLVESGGGLVQSGGSLRLSCAAYGRIFATNAMGWYRPAPGKERELVATITRSAGRTYYADSVKGRFTISRVKAKHSVYLQMNRLKPEDTAVFYFAASYWDTGPGYREYDYWGEGTQVTVSS
polyreactivity (PSR sort gate): low polyreactivity

QVKLVESGRGLVQAGGSLRLSCAASGRIFTNNAMGRYRPATGKERELVAAINVSGGRTYYADSVKGRFTISRENAKNTVYLQMISLKPDDTAVYYCNKVKETYMDYWGQGTQVTVSS
polyreactivity (PSR sort gate): high polyreactivity

QVKLVETGGGLVQAGGSLRLSCAASGSTFEHYAMGWYRQAPGKERELVAAISYTGGNTYYAYSVKGRFTISRDNAKNTVYLQMNSLKPEDTAVYYCAAAPLYYHRRGYYYWGQGTQVTVSS
polyreactivity (PSR sort gate): high polyreactivity

QVKVVESGGGLVQAGGSLRLSCAASGSIYVGYAMGWYRQAPGKERELVAAISWSGDSTYYADSVKGRFTISRDNAKNTVYLQMNSLKPEDTAVYYCAVDYAEIGPRREFEYDYWGQGTQVTVSS
polyreactivity (PSR sort gate): low polyreactivity

QVLLQESGGGLVQAGGSLRLGCAASGTISPAYYMGRYHQAPGKEREFVAAITYGTNTYYADSVKGRFTISRDNAKNNVYLQMNSLKPEDTAVYYCSASAGYNGAHDYWGQGTQVTVSS
polyreactivity (PSR sort gate): low polyreactivity

QVLLQESGGGLVQAGGSLRLSCAARGNIFSAGGMGWYSQAPVNVRELVAGIGTGTSTNYADSVKGRFTISRDNAKNTVYLQMNSLKPEDTAVYYCASGYYSGLSHWFWGQGTQVTVSS
polyreactivity (PSR sort gate): low polyreactivity

QVLLQESGGGLVQAGGSLRLSCAASGTISTDIRMGWYRLAPGKEREFVASIDGCSTTYYADSVKGRFTISRDNAKNTVFLQMNSLKPEDTAMYYCAAREATEFYLYYWGQGTQVTVSS
polyreactivity (PSR sort gate): low polyreactivity

QVLLQESGGGLVQAGGSLRLSCEAIGNIFSAGGMGWYRQAPVNERELVAGIGTGTSTNYAESVKGRFTISRDNAKNTVYLQMNSLNPEDTAVYYCAAAYYSGLSHWYWGQGTQVTVSS
polyreactivity (PSR sort gate): low polyreactivity

QVLLQESGGGLVQEGGSLRLTCAASGNIFSAGGMAWYRQATVNERELVAGIGTGTSTNYADSVKGRFTISRDNAKNTVYLQMNSLKPEDTAVYYCAAAYYSGLSHWYWGQCTQVTVSS
polyreactivity (PSR sort gate): low polyreactivity

QVLLQESGGGLVQPGGSLLLSCAASGNIFSAGGMGWYRQAPVNEPELVAGIGTGTSTNYADSVKGRFTISRDNAKNTVFLQMNSLNPEDTAVYYCAAAYYSGLSHWYWGQGTQVTVSS
polyreactivity (PSR sort gate): low polyreactivity

QVLLVDSGGGLVQAGGSLRLSCAASGRIFGPYTMARYIQAPGPERELVAAISWSGGSTYYADSVKGRFTISRDNAKNNVFLQMNSLKPEDSAVYYCNAYHPFPQYEGGSWGQGTQVTVSS
polyreactivity (PSR sort gate): low polyreactivity

QVLLVDSGGGLVQAGGSLSLICAASGFTFYYNAMGWYRQAPGKERELVAGISGRGGTTYYADSVNGRFTISRDNAKNTVYLQMNSLKPEDTAVYYCAARKVRARSKFEYWGQGTQVTVSS
polyreactivity (PSR sort gate): high polyreactivity

QVLLVEAGGGLVHAGGSLRLSCAASGLIFGYYAMRWYRQAPWKERELVAAISFSGGSSYYADSVKGRFTISRDNAKNTDSLQMNSLKPEDTAVYYCAADLDGSSEYEYWGQGTQVNVSS
polyreactivity (PSR sort gate): low polyreactivity

QVLLVESGGCLVQEGGSLRFSCAASGFIFAYYAMGWYRPAPGKERELVAAITSDGATYYADSVKGRFTISRDNAKNTVYLQMNSLKPEATAVYYCNTYWLLRPGYIYWGQGTQVTVSS
polyreactivity (PSR sort gate): high polyreactivity

QVLLVESGGGLVQAGGILRLSCAASGRILPFNAMGWYRQAPGKAREFVAANSRVSGRTYYADSVKGRFTISRDNAKNTVYLQMNSLKPEDTAVYYCATDTYSYGYEYWGQGTHVTVSS
polyreactivity (PSR sort gate): high polyreactivity

QVLLVESGGGLVQAGGSLRLSCAASGFIFVDYAMGWYRQAHGKERELVAAITSSGDRTYYADSVKGRFTISRDNAKNTVYLQMNSLKPEDTAVYYCNADWSTACYTSYDYWGQGTQVTVSS
polyreactivity (PSR sort gate): low polyreactivity

QVLLVESGGGLVQAGGSLRLSCAASGFTFNRYDMVWYRQAPGTEREKVARITRGGSTKYADSVKGRFTISRDNAKNTVYLQMKSLKPEDTPVSYCAAGPVKRYVVQGNYWGQGTQVTVSS
polyreactivity (PSR sort gate): high polyreactivity

QVLLVESGGGLVQAGGSLRLSCAASGGTFLFYGMGWYRQAPGKERELVAVITWSGGSTYYADSVKGRFTISRDNAKNTVNLQMNSLKPEDTAVYYCNAANTGSPDYQSIGYNFNYWGQGTQVTVSS
polyreactivity (PSR sort gate): low polyreactivity

QVLLVESGGGLVQAGGSLRLSCAASGIILGDNARGWYRQAPGKDRVLDATISTSGVSTYYADSVKGRFTISRDNAKKTVNFQMNSLKPQDTAVYYCAASNEVPWRFPDDSWGQGTQVTVSS
polyreactivity (PSR sort gate): low polyreactivity

QVLLVESGGGLVQAGGSLRLSCAASGRTFARNTMGWYRQAPGKERELVAGITSTGSTNYADSVKGRFTISRDNAKNTVYLQMNSLKPEDTAVYYCNARRYRPGSQYGYDYWGQGTQVTVSS
polyreactivity (PSR sort gate): high polyreactivity

QVLLVESGGGLVQAGGSLRLSCAASGRTLPPNAMGWYRQAPGKERELGAGITWSGGSTYSADSVKGRFTISRDNAKNTVYLQMNSLKPEDTAVYYCAASRSFPGYGLYYYWGQGTQVTVSS
polyreactivity (PSR sort gate): low polyreactivity

QVLLVESGGGLVQAGGSLRLSCAASGSTFPGNAMGWYRQAPGKERELVARINDGADTNYADSVKGRFTISRDNAKNTVNLQMNSLKPEDTAVYYCATPYYDGRTHFDSWGQGTQVTVSS
polyreactivity (PSR sort gate): low polyreactivity

QVLLVESGGRLVQAGGSLRLSSAASGRTLNINAMGWYRQAPGKERELVAVISFNGGGTYYADSVKGRFTISRDNGKNTVYLQMNSLKPEDTAVYYCNAVRDRYASDYWGQGTQVTVTS
polyreactivity (PSR sort gate): low polyreactivity

QVMLVESGGGLVQAGGSLRLSCAASGSIFKSNAMGWYRQAPGKERELVAAITRSGGSTYYADSVKGRFTISRDNAKYTVYLQMNSLKPEDTAVYYCARRPGKGNNYWGKGTQVTVSS
polyreactivity (PSR sort gate): high polyreactivity

QVNHVESGGGLVQAGGSLRLTCAASGRTFSRYVMGWYRQSPGKERELVAAISRTGGRTYYADSVKGRFTISRDNAKNSVYLQMNSLNPEDTAVYYCYAGTVLISTYDYWGQGTQVTLSS
polyreactivity (PSR sort gate): high polyreactivity

QVNLEESGGGLVQAGVILRLSSAASGSIFYRNAMGWYRQAPGKEREWVAAISSGGSTYYADSVKGRFTISRDNAKNTVYLQMNSLKPEETAVYYCAKDAHIWGYRDYEYWGLGTQVTVSS
polyreactivity (PSR sort gate): high polyreactivity

QVNLVDSGGGLVQAGGSLRLSCAASGSTFRNNAMGWSRQAPGKERELVAVITGDGGSTYYADSVKGRFTISRDNAKNTVYLQMNSLKPEDTAVYYCNARSIRYYRFRLRFGYWGQGTQVTVSS
polyreactivity (PSR sort gate): low polyreactivity

QVNLVESGVGLVQAGVSLRLSCAASGRIFQYYAMGWYRQATGKERELVAAISRSGGSTYYADSVKGRFTISRDNANNTVYLQMNSLKPEDTAVYYCAKVYRGFSYGYCGQGTQVTVSS
polyreactivity (PSR sort gate): high polyreactivity

QVPLVASGGGLVQAGGSLRLSCSASGRTFQYNAMGCYRQAPGKERELVAAITKRGTSTYFADSVKGRFTISRDNAKNTVYLQMNRLIPEDTAVYYCAALEGSLTGWQTYDYWGQGTQVTVSS
polyreactivity (PSR sort gate): low polyreactivity

QVPLVDSGGGLVQAGGSLRLSCAASGRSYGIYAMGWYIQAPGKERELVASITGRGGSTYYADSVKGRFTISRDNAKNTFYLQKNSLKPDDTAVYFCAARDRPYVHYSGLDYWGQGTQVTVSS
polyreactivity (PSR sort gate): high polyreactivity

QVPLVESGGGLVHAGGSLRLSCAASGIILHDNTMGWYRQAPGKERELVAAITSDGSTNYADSVKGRFTISSDNAKNTVYLQMNSLKPEDTAVYYCNTDDGPYTEFDYWRQGTQVTVSS
polyreactivity (PSR sort gate): low polyreactivity

QVPLVESGGGLVQAGGSLRLICAASGRIFYRYAMVWYRQAPGKERELVATISRSGGSTNYADSVKGRFTISRDNAKNTVYLQMNSLKPEDTAVYYCNARYLSTRSGDYWGQGTQVTVSS
polyreactivity (PSR sort gate): high polyreactivity

QVPLVESGGGLVQAGGSLRLSCAACGFIFGSYSMGWYRQAPGKERELVAAITSDGNTDYADSVKGRFTISRDNAKNTVYLQMNSLKPEDTAVYYCATDWVDHYDYWGQGTQVTVSS
polyreactivity (PSR sort gate): low polyreactivity

QVPLVESGGGLVQAGGSLRLSCAASGRTFVGYAMGWSSQAPGKDRELVARITGRSGSTYYADSVKGRFTISRDNAKNTVYLQMNSLKTEDTAVYDCAKRITYYYPGYDDWGQGTQVTVAS
polyreactivity (PSR sort gate): low polyreactivity

QVPLVESGGGLVQAGGSLRLSCAASGRTFWNYAMGWYRPAPGKERELVAVSRFSDGSTYYADSVKGRFTISRDNAKNTVYLQMNSLKPEDTAVDDGAAKGPRRWGSGFDYWGQGTQVTVSS
polyreactivity (PSR sort gate): low polyreactivity

QVPLVESGGGLVQAGGSLRLSCAASGSTFYTYAMGWYRQAPGKERELVATISRGGGRTYYADSVKGRFTISRDNAKYTVYLQMISLKPEDTAVYYCAARLYSSSYNSEQYYYWGQGTQVTVSS
polyreactivity (PSR sort gate): high polyreactivity

QVPLVESGVGLVQAGGSLRLSCAASGSTFTIYAMGWYREAPGKERELVAAITWNGGSTYYADSVKGRFTISRDNAKKTVYLQMNSLKPEDTAVYYCADDYYWYWDLYDYWGQGTQVTVSS
polyreactivity (PSR sort gate): high polyreactivity

QVPLVKSGAGFVQAGGILRLSCAASGRIFPFYVNGLARQAAGQERELVATINWSGGSTYYADSVKGRFTISRDNAKNTVYLQMNSLKPADTAVYYCAAAGIGGGGWGQGTQVTVSS
polyreactivity (PSR sort gate): low polyreactivity
